From US20220195446 come the findings set out here.

Data set [1] has as its system ZnFng-WUS1 ATF (synthetic construct). Kind of data set: cell_activity. As to conditions: endogenous WUS2 mRNA by RT-PCR relative to Act1 in corn protoplasts; range 8-12%; mock nearly zero; binding inferred from activation.
The subject of data set [2] is ZnFng-WUS2 ATF (synthetic construct). Kind of data set: cell_activity. To be noted: endogenous WUS2 mRNA by RT-PCR relative to Act1 in corn protoplasts; range 15-60%; mock nearly zero; binding inferred from activation.

ZnFng-WUS1 ATF (synthetic construct), sequence (chain, as listed by the source): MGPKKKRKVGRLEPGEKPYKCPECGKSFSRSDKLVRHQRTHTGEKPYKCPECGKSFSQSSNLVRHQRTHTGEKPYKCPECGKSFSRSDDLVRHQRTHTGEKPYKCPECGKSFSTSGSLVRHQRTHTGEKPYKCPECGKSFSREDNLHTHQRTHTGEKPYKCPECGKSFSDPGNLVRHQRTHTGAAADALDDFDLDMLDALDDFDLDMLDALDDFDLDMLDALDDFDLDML
ZnFng-WUS2 ATF (synthetic construct), sequence (chain, as listed by the source): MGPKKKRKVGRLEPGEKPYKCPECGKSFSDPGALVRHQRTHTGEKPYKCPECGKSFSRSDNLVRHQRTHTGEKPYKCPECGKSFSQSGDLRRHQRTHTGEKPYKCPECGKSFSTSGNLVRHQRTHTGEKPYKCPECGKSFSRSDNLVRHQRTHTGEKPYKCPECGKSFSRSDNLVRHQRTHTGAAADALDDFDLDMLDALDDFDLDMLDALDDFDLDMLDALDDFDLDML

With “GACTAGGTTGCGGAAGGG (double strand) [ZnFng-WUS1 binding site in maize WUS2 promoter]”, the activity in data set [1] is 10 % of actin.

In the case of GAGGAGGATGCAGAGGTC (double strand), the activity in data set [2] was 50 % of actin.
